Assay [1] has as its target T1, full-length Ply2638A endolysin (PlyFL) (Staphylococcus pseudintermedius phage …, UniProt Q4ZD58 1-486).
T1 construct: Endolysin Ply2638A of Staphylococcus pseudintermedius phage φ2638A, full length (M23 endopeptidase, central amidase, C-terminal SH3b CBD; SH3b domain is residues 393-486); internal start codon TTG at Leu180 silently changed to CTC so that only the FL isoform is made; expected mass 55.5 kDa; The TTG>CTC change at Leu180 is silent (Leu to Leu); Purified as a protein without a His-tag; In the SEC of …
T1 sequence (looked up): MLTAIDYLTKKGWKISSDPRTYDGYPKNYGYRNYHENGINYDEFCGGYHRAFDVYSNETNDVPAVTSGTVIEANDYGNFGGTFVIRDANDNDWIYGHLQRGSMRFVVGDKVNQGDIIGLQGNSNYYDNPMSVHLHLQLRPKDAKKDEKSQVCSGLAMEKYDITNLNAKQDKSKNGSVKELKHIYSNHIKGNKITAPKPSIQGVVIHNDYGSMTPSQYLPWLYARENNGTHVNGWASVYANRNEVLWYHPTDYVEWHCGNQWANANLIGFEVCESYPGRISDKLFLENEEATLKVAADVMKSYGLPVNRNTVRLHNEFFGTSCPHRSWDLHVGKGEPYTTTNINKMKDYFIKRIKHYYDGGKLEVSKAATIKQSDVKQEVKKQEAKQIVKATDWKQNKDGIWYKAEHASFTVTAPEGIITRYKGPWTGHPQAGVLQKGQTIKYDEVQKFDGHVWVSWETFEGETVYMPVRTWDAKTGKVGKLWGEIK
The assay is described as follows: SEC-MALS; 1:3 (w/w) mixture of PlyFL and PlySV at 1 mg/mL, Superdex 200 10/30, 10 mM HEPES, 150 mM NaCl, 3.4 mM EDTA, 0.005 % Tween20, pH 7.4. The settings on record: both partners purified. (SEC sorts molecules by how far they enter the pores of the column.)

Assay [2] concerns the target T1, full-length Ply2638A endolysin (PlyFL). The assay is described as follows: SPR; Biacore X, PlyFL immobilised by amine coupling on a CMD500L chip; analytes at 750 nM, 1 μM, 2.5 μM and 5 μM, 10 μL/min, running buffer PBS pH 7.4; steady state not attained. The settings on record: both partners purified. (In SPR one partner is held on a chip, and binding of the other changes the refractive index at the surface.)

What is called stoichiometry N is the number of molecules, sites or subunits per partner or assembly.

B1: Ply2638A short variant isoform (PlySV) (domain or fragment, UniProt Q4ZD58 180-486, looked up)
chain: LKHIYSNHIKGNKITAPKPSIQGVVIHNDYGSMTPSQYLPWLYARENNGTHVNGWASVYANRNEVLWYHPTDYVEWHCGNQWANANLIGFEVCESYPGRISDKLFLENEEATLKVAADVMKSYGLPVNRNTVRLHNEFFGTSCPHRSWDLHVGKGEPYTTTNINKMKDYFIKRIKHYYDGGKLEVSKAATIKQSDVKQEVKKQEAKQIVKATDWKQNKDGIWYKAEHASFTVTAPEGIITRYKGPWTGHPQAGVLQKGQTIKYDEVQKFDGHVWVSWETFEGETVYMPVRTWDAKTGKVGKLWGEIK
notes: expected mass 35.3 kDa; the C-terminal SH3b domain ends at residue 486; The first residue may be Met when translation starts at the TTG codon or in the recombinant construct (surmise); also called SV isoform; short variant (SV); source: E. coli, purified (cation exchange chromatography, SEC); also co-produced with the FL isoform from pET302_PlyWT (PlyWT), purified the same way
For B1, the “stoichiometry N” value in assay [1] turned out to be 1 PlySV per PlyFL.

B2: central amidase domain of Ply2638A (Ami) (domain or fragment, UniProt Q4ZD58 180-359, looked up)
chain: LKHIYSNHIKGNKITAPKPSIQGVVIHNDYGSMTPSQYLPWLYARENNGTHVNGWASVYANRNEVLWYHPTDYVEWHCGNQWANANLIGFEVCESYPGRISDKLFLENEEATLKVAADVMKSYGLPVNRNTVRLHNEFFGTSCPHRSWDLHVGKGEPYTTTNINKMKDYFIKRIKHYYDG
notes: Endolysin Ply2638A of phage φ2638A, central N-acetylmuramoyl-L-alanine amidase domain, residues 180-359 (Leu180-Gly359); The limits are printed for the construct used in crystallisation trials; also called amidase domain alone; source: E. coli, purified (cation exchange chromatography, SEC)
For B2, the binding result in assay [2] is “binds”.
